In experiment [1] the target is blocked scFv having an HRV-3C protease substrate in the peptide linker (H6-MG VH / HL1-TO1 VL), pept. Nature of the experiment: cell-based or functional assay.
In experiment [2] the target is blocked scFv having a caspase 3 protease substrate in the peptide linker (H6-MG VH / HL1-TO1 VL), peptide construct SEQ ID NO:51, displayed on yeast. Nature of the experiment: cell-based or functional assay.

From patent US20130177924A1 come the findings set out here.

The substance Human Rhinovirus 3C protease (enzyme) came in with a time to complete activation of MG fluorescence, 10^6 yeast cells with 1 unit of HRV-3C protease at 25 C in experiment [1] of 30 min. On to caspase 3 protease (enzyme), for which the time to complete activation of MG fluorescence, 10^6 yeast cells with 1 unit of caspase 3 protease at 25 C in experiment [2] is 30 min.
